The values below come from publication PMC10410066.

Assay [1] deals with N571 Q55 HTT (N-terminal huntingtin fragment 1-571 with 55 glutamines). The assay is described as follows: ELISA protein-protein interaction assay (2B7 capture, anti-FLAG detection). Particulars: lysates of HEK293T cells co-overexpressing N571 Q55 HTT and FLAG-tagged IKBKB construct; parent: est. 100; read off a plot.
For assay [2], the target named is inhibitor of nuclear factor kappa B kinase subunit beta (IKBKB), FLAG-tagged (UniProt O14920). Described as above. Particulars: lysates of HEK293T cells co-overexpressing N571 Q55 HTT WT or S13A/S16A and FLAG-tagged IKBKB; parent: est. 100; read off a plot.

As for “inhibitor of nuclear factor kappa B kinase subunit beta (IKBKB), FLAG-tagged (from UniProt O14920) S177E; S181E”, in assay [1], the percent of parent was 190%.
The same measure, in the same setting: the value for “inhibitor of nuclear factor kappa B kinase subunit beta (IKBKB), FLAG-tagged (from UniProt O14920) W739A; W741A” was 190%; that for “inhibitor of nuclear factor kappa B kinase subunit beta (IKBKB), FLAG-tagged (from UniProt O14920) K44A” was 17%.
Consider “N571 Q55 HTT (N-terminal huntingtin fragment 1-571 with 55 glutamines) S13A; S16A”, for which the percent of parent in assay [2] came out at 100%.
